Assay results published in the supplement of paper PMC10567573.

B1: RAD51 (parent)
chain: RFLRMLLRLADEFGVAVVITNQVV

Variants of: B1
Assay: protein stability index of a GFP-peptide fusion (GPS, HEK-293T) (PSI 1-6); higher = more stable
Details: c terminus: a fixed tail appended
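Also: lentivirally expressed fusions sorted by FACS into six bins by GFP to DsRed ratio, PSI derived from sequencing read proportions per bin multiplied by bin number.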

| Variant | protein stability index |
| --- | --- |
| A10M | 3.27 |
| A10H | 1.64 |
| A10D | 1.97 |
| A10K | 2.9 |
| A10Y | 3.62 |
| A10Q | 1.82 |
| A10V | 1.95 |
| A10T | 3.2 |
| A10L | 3.03 |
| A10C | 1.79 |
| A10R | 1.65 |
| L6V | 2.54 |
| L6H | 1.55 |
| L6A | 1.91 |
| L6K | 1.96 |
| L6R | 2.89 |
| L6C | 2.78 |
| L6G | 2.56 |
| L6P | 3.81 |
| L6W | 2.54 |
| L6N | 2.75 |
| T20C | 1.8 |
| T20W | 3.05 |
| T20K | 3.31 |

| Variant | protein stability index |
| --- | --- |
| T20R | 2.34 |
| T20Q | 2.26 |
| T20Y | 1.97 |
| T20I | 2.75 |
| T20E | 1.53 |
| T20A | 2.68 |
| T20N | 1.21 |
| T20L | 2.3 |
| T20M | 1.44 |
| T20S | 3.06 |
| T20P | 2.72 |
| T20D | 2.52 |
| T20F | 1.3 |
| F2D | 2.27 |
| F2C | 1.75 |
| F2M | 2.29 |
| F2V | 1.59 |
| F2N | 2.1 |
| F2E | 1.51 |
| F2A | 1.89 |
| F2L | 1.6 |
| F2W | 1.88 |
| F2Q | 2.22 |
| F2H | 1.78 |

| Variant | protein stability index |
| --- | --- |
| F2T | 3.18 |
| F2G | 1.75 |
| F2Y | 2.21 |
| F2I | 2.4 |
| F2S | 1.91 |
| F2R | 1.7 |
| V23R | 1.09 |
| V23Y | 1.5 |
| V23H | 2.07 |
| V23K | 2.73 |
| V23W | 1.98 |
| V23M | 2.37 |
| V23T | 1.51 |
| V23N | 1.9 |
| V23Q | 1.98 |
| V23I | 3.7 |
| V23P | 2.23 |
| V23F | 3.02 |
| V23E | 1.9 |
| V23S | 2.56 |
| L7F | 2.04 |
| L7K | 1.98 |
| L7M | 1.55 |
| L7W | 1.94 |

| Variant | protein stability index |
| --- | --- |
| L7I | 2.79 |
| L7V | 2.15 |
| L7E | 2.69 |
| L7H | 2.34 |
| L7T | 2.6 |
| L7A | 1.25 |
| L7S | 1.6 |
| L7P | 2.49 |
| L7Q | 2.34 |
| L7D | 1.3 |
| V18P | 2.32 |
| V18A | 3.03 |
| V18F | 1.24 |
| V18T | 3.38 |
| V18M | 3.82 |
| V18S | 3.17 |
| V18C | 2.1 |
| V18G | 2.45 |
| V18D | 2.79 |
| V18R | 2.94 |
| V18N | 3.8 |
| V18E | 2.44 |
| V18Q | 2.87 |
| V18W | 2.75 |

| Variant | protein stability index |
| --- | --- |
| V18K | 3.09 |
| V24G | 2.11 |
| V24P | 2.06 |
| V24K | 1.45 |
| V24W | 1.25 |
| V24S | 1.44 |
| V24H | 3.01 |
| V24M | 2.4 |
| V24R | 2.55 |
| V24T | 1.83 |
| V24D | 2.48 |
| V24I | 3.73 |
| V24F | 2.68 |
| V24C | 2.11 |
| V24N | 1.86 |
| V24E | 1.41 |
| V24A | 1.89 |
| M5R | 1.83 |
| M5S | 2.93 |
| M5T | 3.18 |
| M5N | 1.93 |
| M5F | 2.15 |
| M5H | 3.79 |
| M5I | 2.23 |

| Variant | protein stability index |
| --- | --- |
| M5E | 2.43 |
| M5D | 2.28 |
| M5L | 2.13 |
| M5Q | 2.11 |
| N21D | 4.17 |
| N21E | 1.08 |
| N21I | 1.43 |
| N21C | 1.32 |
| N21Q | 1.9 |
| N21K | 2.3 |
| N21R | 1.68 |
| N21S | 1.19 |
| N21A | 2.52 |
| N21W | 1.76 |
| N21L | 1.97 |
| N21G | 3.1 |
| N21T | 2.02 |
| N21Y | 2.19 |
| N21V | 2.43 |
| N21F | 2.06 |
| G14D | 2.97 |
| G14H | 1.82 |
| G14E | 1.92 |
| G14M | 1.74 |

| Variant | protein stability index |
| --- | --- |
| G14K | 1.96 |
| G14Y | 3.29 |
| G14C | 2.4 |
| G14V | 2.18 |
| G14F | 4.07 |
| G14L | 3.4 |
| G14N | 2.03 |
| G14T | 1.94 |
| G14P | 1.33 |
| G14Q | 1.69 |
| G14A | 2.83 |
| G14S | 1.53 |
| I19V | 1.63 |
| I19R | 3 |
| I19G | 1.58 |
| I19W | 1.96 |
| I19K | 2.52 |
| I19L | 1.45 |
| I19P | 1.47 |
| I19T | 2.84 |
| I19C | 2 |
| I19Y | 2.79 |
| I19S | 1.95 |
| I19F | 2.18 |

| Variant | protein stability index |
| --- | --- |
| I19A | 3.02 |
| I19H | 1.25 |
| L9Q | 2.88 |
| L9F | 1.76 |
| L9S | 1.76 |
| L9D | 2.1 |
| L9P | 3.32 |
| L9M | 1.54 |
| L9V | 2.38 |
| L9N | 2.37 |
| L9K | 1.98 |
| L9E | 1.65 |
| L9Y | 2.89 |
| L9G | 3.55 |
| L9I | 2.52 |
| Q22R | 2.08 |
| Q22C | 2.3 |
| Q22A | 1.52 |
| Q22T | 1.44 |
| Q22I | 1.43 |
| Q22M | 1.65 |
| Q22Y | 2.77 |
| Q22H | 1.9 |
| Q22F | 1.29 |

| Variant | protein stability index |
| --- | --- |
| Q22N | 1.85 |
| Q22L | 1.68 |
| Q22D | 1.65 |
| Q22S | 2.47 |
| Q22P | 1.99 |
| Q22V | 2.24 |
| Q22G | 2.92 |
| V17C | 1.06 |
| V17Y | 2.83 |
| V17S | 1.36 |
| V17Q | 1.25 |
| V17W | 2.41 |
| V17K | 2.65 |
| V17G | 3.41 |
| V17D | 2.06 |
| V17P | 1.86 |
| V17A | 1.67 |
| V17R | 1.52 |
| V17T | 2.11 |
| V17F | 2.19 |
| V17I | 3.4 |
| V17L | 2.96 |
| V17E | 2.58 |
| A16W | 2.44 |

| Variant | protein stability index |
| --- | --- |
| A16S | 2.34 |
| A16V | 1.34 |
| A16K | 2.4 |
| A16T | 1.79 |
| A16D | 3.29 |
| A16I | 2.24 |
| A16F | 1.55 |
| A16H | 3.12 |
| A16R | 2.25 |
| A16L | 2.2 |
| A16N | 3.11 |
| A16Q | 1.87 |
| A16P | 1.08 |
| A16Y | 1.93 |
| A16C | 1.43 |
| F13T | 1.97 |
| F13A | 1.3 |
| F13S | 1.59 |
| F13H | 1.86 |
| F13R | 2.34 |
| F13G | 2.04 |
| F13P | 1.25 |
| F13K | 2.2 |
| F13W | 3.5 |

| Variant | protein stability index |
| --- | --- |
| F13Q | 1.61 |
| F13Y | 1.72 |
| F13M | 2.21 |
| F13E | 2.74 |
| F13N | 1.26 |
| R4S | 3.21 |
| R4A | 2.24 |
| R4V | 1.91 |
| R4E | 1.23 |
| R4M | 1.97 |
| R4W | 1.77 |
| R4H | 2.49 |
| R4P | 2.39 |
| R4N | 3.36 |
| R4C | 2.77 |
| R4T | 2.42 |
| R4K | 2.82 |
| R4D | 1.96 |
| R4Y | 2.93 |
| E12I | 3.64 |
| E12A | 2.02 |
| E12Q | 3.13 |
| E12M | 2.33 |
| E12S | 2.08 |

| Variant | protein stability index |
| --- | --- |
| E12K | 2.42 |
| E12R | 3.5 |
| E12N | 1.68 |
| E12L | 2.75 |
| E12D | 2.48 |
| E12F | 3.25 |
| D11Y | 3.81 |
| D11L | 2.46 |
| D11T | 2.51 |
| D11R | 2.85 |
| D11C | 2.06 |
| D11K | 3.43 |
| D11A | 3.02 |
| D11N | 1.66 |
| D11P | 1.85 |
| R8M | 2.17 |
| R8Q | 2.09 |
| R8I | 3.12 |
| R8G | 1.46 |
| R8F | 2.47 |
| R8W | 1.83 |
| R8L | 3.02 |
| R8K | 2.33 |
| R8A | 1.42 |

| Variant | protein stability index |
| --- | --- |
| R8D | 2.57 |
| R8S | 2.96 |
| R8N | 1.78 |
| V15I | 2.51 |
| V15R | 2.32 |
| V15W | 2.43 |
| V15K | 2.75 |
| V15C | 3.16 |
| V15P | 3.13 |
| V15H | 2.6 |
| V15F | 2.82 |
| V15S | 3.16 |
| V15D | 1.77 |
| V15M | 1.56 |
| V15N | 2.31 |
| V15L | 2.06 |
| L3R | 1.17 |
| L3M | 2.19 |
| L3G | 2.62 |
| L3N | 3.69 |
| L3T | 3.74 |
| L3H | 2.75 |
| L3S | 3.09 |
| L3W | 2.03 |

| Variant | protein stability index |
| --- | --- |
| L3E | 3.2 |
| L3A | 4.15 |
| L3Q | 1.78 |
| L3Y | 2.14 |
| L3I | 1.35 |
| R1Y | 2.8 |
| R1I | 2.9 |
| R1F | 1.92 |
| R1E | 2.06 |
| R1K | 2.54 |
| R1W | 3 |
| R1C | 2.23 |
| R1V | 1.52 |
| R1N | 2.71 |
| R1M | 2.43 |
| R1A | 1.62 |
| R1S | 2.27 |
| R1T | 1.37 |
| R1P | 2.08 |
| R1L | 2.12 |
| R1Q | 1.79 |
| R1H | 1.78 |
